This note sets out measurements from article PMC11187310, “Are there double knots in proteins? Prediction and in vitro verification based on TrmD-Tm1570 fusion from C. nitroreducens” (Frontiers in Molecular Biosciences, 2023).

Data set [1] addresses Tm1570 domain of CnTrmD-Tm1570 (residues 241-433) (Calditerrivibrio nitroreducens). The experiment in a line: SEC; preparative Superdex 75 column; running buffer 50 mM Hepes, 300 mM NaCl, 10% glycerol, 1 mM TCEP, pH 7.4; proteins refolded from urea; oligomer state judged by retention volumes.
Data set [2] concerns the molecule itself. The data set is described as above.

As a reminder, the stoichiometry N is a count of units in the complex or per binding partner. In the case of “Tm1570 domain of CnTrmD-Tm1570 (residues 241-433) (domain or fragment)”, the stoichiometry N in data set [1] came out at 2.

B1: TrmD-Tm1570 fusion protein from Calditerrivibrio nitroreducens (enzyme, UniProt E4THH1 1-433, looked up)
chain: MKRYNVITIFPEMINEIFKYGVLSKGIDIGLFRVNPINLRDYTEDKHKTVDDYQYGGGHGLVMKPEPIYKAIADLKSKKDTHVVFLDPRGEQFTQKTAERLYNYDDITFVCGRYEGIDDRVRELMADEMISIGDFVITGGELAAVTIIDAVARLIPGVLGDENSPNEESFTTGLLEYPHFTRPAEFMGKKVPEVLISGNHEEIRRWRLTESIKTTLQNRPDMILRKSLSREEEQILWSLTRGVQRKYNIYVALMHYPMRDKEGKVVTTSITNMDLHDISRSCRTFGVKNYFVVNPMPAQREIASRVVRHWIKGYGATYNENRKEAFEYTIITDSLASVIKSIEEKESGSPIIIATTARYQQKAISIEKLKEIADRPILLLFGTGWGFVDDILEFADYVLKPIHGVGDFNHLSVRSAVAIYLDRINRSFQEDIL
notes: TrmD-Tm1570 (PF01746-PF09936 architecture) of Calditerrivibrio nitroreducens, UniProtKB E4THH1; full-length protein, residues 1-433 by the limits of the two truncated domains; 49.6 kDa monomer; Codon-optimized synthetic gene in pET28b; further details of the constructs are in SI Materials and Methods; also called CnTrmD-Tm1570; fusion TrmD-Tm1570
Turning to B1, in data set [2], the “stoichiometry N” value stood at 2.

B2: single-domain EcTrmD (enzyme, E. coli (from the label EcTrmD), UniProt P0A873 1-255, looked up)
chain: MWIGIISLFPEMFRAITDYGVTGRAVKNGLLSIQSWSPRDFTHDRHRTVDDRPYGGGPGMLMMVQPLRDAIHAAKAAAGEGAKVIYLSPQGRKLDQAGVSELATNQKLILVCGRYEGIDERVIQTEIDEEWSIGDYVLSGGELPAMTLIDSVSRFIPGVLGHEASATEDSFAEGLLDCPHYTRPEVLEGMEVPPVLLSGNHAEIRRWRLKQSLGRTWLRRPELLENLALTEEQARLLAEFKTEHAQQQHKHDGMA
notes: tRNA methyltransferase D (TrmD), single-domain protein, labelled EcTrmD; 28.4 kDa monomer; The printed monomer mass of 28.4 kDa fits the whole protein
Regarding B2, in data set [2], the binding result is reported as “binds”.

B3: TrmD domain of CnTrmD-Tm1570 (residues 1-240) (domain or fragment, Calditerrivibrio nitroreducens, UniProt E4THH1 1-240, looked up)
chain: MKRYNVITIFPEMINEIFKYGVLSKGIDIGLFRVNPINLRDYTEDKHKTVDDYQYGGGHGLVMKPEPIYKAIADLKSKKDTHVVFLDPRGEQFTQKTAERLYNYDDITFVCGRYEGIDDRVRELMADEMISIGDFVITGGELAAVTIIDAVARLIPGVLGDENSPNEESFTTGLLEYPHFTRPAEFMGKKVPEVLISGNHEEIRRWRLTESIKTTLQNRPDMILRKSLSREEEQILWSLT
notes: TrmD domain of TrmD-Tm1570 of Calditerrivibrio nitroreducens, UniProtKB E4THH1, residues 1-240; 27.5 kDa monomer; Truncated version of m1
As for B3, the “stoichiometry N” value in data set [2] was 2.
